Where a chain is given by its changes, count along the chain named.
T1: human CD300D-Fc (human)
T1 construct: hIgG1-Fc fusion; the entry is the whole fusion chain
T1 chain: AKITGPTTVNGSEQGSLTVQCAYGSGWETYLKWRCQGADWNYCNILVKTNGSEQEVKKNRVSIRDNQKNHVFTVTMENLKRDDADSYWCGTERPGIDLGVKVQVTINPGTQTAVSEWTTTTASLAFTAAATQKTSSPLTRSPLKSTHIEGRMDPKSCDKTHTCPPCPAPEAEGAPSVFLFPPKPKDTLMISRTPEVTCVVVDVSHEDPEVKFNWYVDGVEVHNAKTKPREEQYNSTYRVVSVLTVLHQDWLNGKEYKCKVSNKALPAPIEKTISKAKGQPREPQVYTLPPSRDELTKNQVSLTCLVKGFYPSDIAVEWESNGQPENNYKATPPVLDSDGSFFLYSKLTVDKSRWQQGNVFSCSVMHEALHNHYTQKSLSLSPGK

T2: human CD300A-Fc (human)
T2 construct: hIgG1-Fc fusion; the entry is the whole fusion chain
T2 chain: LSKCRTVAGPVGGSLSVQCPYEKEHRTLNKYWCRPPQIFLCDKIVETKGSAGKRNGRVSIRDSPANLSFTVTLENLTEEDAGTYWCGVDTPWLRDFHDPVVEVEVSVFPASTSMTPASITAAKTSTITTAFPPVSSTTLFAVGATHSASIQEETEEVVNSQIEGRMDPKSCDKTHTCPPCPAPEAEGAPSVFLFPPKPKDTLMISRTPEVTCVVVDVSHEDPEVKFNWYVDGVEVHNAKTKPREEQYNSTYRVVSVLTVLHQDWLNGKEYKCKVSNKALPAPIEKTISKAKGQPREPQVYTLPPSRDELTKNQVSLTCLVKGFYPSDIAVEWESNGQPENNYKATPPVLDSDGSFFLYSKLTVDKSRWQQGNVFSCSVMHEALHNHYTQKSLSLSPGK

T3: human CD300E-Fc (human)
T3 construct: hIgG1-Fc fusion; the entry is the whole fusion chain
T3 chain: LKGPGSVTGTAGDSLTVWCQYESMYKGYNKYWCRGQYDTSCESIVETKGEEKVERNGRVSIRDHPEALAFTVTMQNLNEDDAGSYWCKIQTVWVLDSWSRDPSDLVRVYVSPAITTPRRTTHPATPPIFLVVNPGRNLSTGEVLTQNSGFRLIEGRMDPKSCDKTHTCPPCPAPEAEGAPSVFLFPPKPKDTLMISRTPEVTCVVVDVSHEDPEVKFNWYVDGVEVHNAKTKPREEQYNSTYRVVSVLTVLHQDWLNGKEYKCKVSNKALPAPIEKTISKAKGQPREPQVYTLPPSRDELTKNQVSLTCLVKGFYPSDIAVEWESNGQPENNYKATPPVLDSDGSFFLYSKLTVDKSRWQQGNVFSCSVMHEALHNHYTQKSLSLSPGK

T4: human CD300LB on primary human monocytes (human, UniProt A8K4G0 18-201)
T4 construct: Endogenous protein on primary cells; that the target is CD300LB is inferred from the antibodies being anti-CD300LB antibodies; also called Monocyte donor 1281; Monocyte donor 1282
T4 sequence: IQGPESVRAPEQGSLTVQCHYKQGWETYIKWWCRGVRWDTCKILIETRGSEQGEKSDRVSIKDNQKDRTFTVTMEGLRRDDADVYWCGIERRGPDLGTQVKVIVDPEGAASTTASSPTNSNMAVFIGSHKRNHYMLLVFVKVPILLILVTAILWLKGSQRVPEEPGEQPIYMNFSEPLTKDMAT

B1: anti-CD300LB antibody CD-02 (antibody, V domains shown)
VH: QVQLQQPGAELVRPGSSVKLSCQASGYTFTNYWMHWVRQRPIQGLEWIGNIDPSDSETHYNQKFKDRATLTVDKSSSTAYMQLSSLTSEDSAVYYCARSGVYDDEGGDYWGQGTTLTVSS
VL: ENVLTQSPAIMSASPGEKVTMTCSASSSVSYIHWYQQKSSTSPKLWIYDTSKLASGVPGRFSGSGSGNSYSLTISSMETEDVATYYCFQGSGYPLTFGAGTKLELK
B2: anti-CD300LB antibody CD-05 (antibody, V domains shown)
VH: QVQLVQSGAEVKKPGASVKVSCKASGYTFSRYYINWVRQAPGQGLEWMGWINPNSGGTNYAQKFQGRVTMTRDTSTSTVYMELSSLRSEDTAVYYCTTDQLRFGKTGPYYGMDVWGQGTTVTVSS
VL: DIQMTQSPSSLSASVGDRVTITCRASQNIGTYLNWYQQKPGKAPKLLIYAASSLQSGVPSRFSGSGSGTDFTLTISSLQPEDFATYYCQQSYSDTLTFGGGTKVEIK
B3: anti-CD300LB antibody CD-01 (antibody, V domains shown)
VH: RVQLQQSGAELVRPGASVTLSCKASGFTFTDFEMHWVKKTPVHGLEWIGAIDPESGNTAYNQKFRGKATLTADKSSSTAYMELRYLTSEDSAVYYCTPLISGADYWGQGTTLTVSS
VL: DVVMTQSPLSLPVSLGDQASISCRSSQSLVHSDGNTYLYWYLQKPGQSPKLLIYKVSNRFSGVPDRFSGSGSGTDFTFKISRVGAEDLGVYFCSQSTHVPWTFGGGTKLEII
B4: anti-CD300LB antibody CD-03 (antibody, V domains shown)
VH: EVQLQQSGPELVKPGASVKISCKASGYTFTDYYINWVRQSHGKSLECIGDINPNNGGTNYNQKFKGKATLTVDRSSNTAYMEFRSLTFDDSALYYCAAEGAYWGQGTLVTVSA
VL: not shown
B5: anti-CD300LB antibody CD-07 (antibody, V domains shown)
VH: QVQLVQSGAEVKKPGASVKVSCKASGYTFTNYRMHWVRQAPGQGLEWMGWINPNSGGTIYAQKFQGRVTMTRDTSTSTVYMELSSLRSEDTAVYYCARDLDYWGQGTLVTVSS
VL: B2 VL with R24Q, N28D, G30S, T31N, A50G, D94T, T95P, L96W, G100P
B6: anti-CD300LB antibody CD-06 (antibody, V domains shown)
VH: QVQLVQSGAEVKKPGASVKVSCKASGYTFTTYAVHWVRQAPGQGLEWMGIVNPNSGGTNYAQKFQGRVTMTRDTSTSTVYMELSSLRSEDTAVYYCARDIVPMNNFYNYYYGMDVWGQGTTVTVSS
VL: B2 VL with N28S, G30S, T31S, A51T, S53T, S93R, D94I, T95P, L96Y, G100Q

Biological target: T1, human CD300D-Fc
Experiment: SPR (Carterra LSA), antibody immobilised, Fc fusion at 300 or 600 nM
Experimental: (§1) Binding of mouse anti-CD300LB IgG1 antibodies of the present disclosure to human and murine CD300 orthologs were evaluated by surface plasmon resonance (SPR) using a Carterra LSA instrument (Carterra, Salt Lake City, UT). […] A HC200M sensor chip (Carterra) was activated using the single channel flow cell with a 7-minute injection of a 1:1:1 mixture of 100 mM MES pH 5.5, 100 mM sulfo-NHS, 400 mM EDC (all reconstituted in MES pH 5.5; 100 μL of each mixed in vial immediately before running assay). After switching to the multi-channel array flow cell, the antibodies were injected over the activated chip in a 96-spot array for 10 minutes. The remaining unconjugated active groups on the chip were then blocked by injecting 1M Ethanolamine pH 8.5 (Carterra) for 7 minutes using the single channel flow cell. After priming with running buffer (HBS-TE, Carterra) with 0.5 mg/ml BSA (Sigma), the immobilized anti-CD300LB antibodies were tested for their ability to bind human and mouse recombinant CD300LB extracellular domains. Human CD300 family members and mouse CD300A were hIgG1-Fc fusions, while mouse CD300LB, mouse CD300C, mouse CD300D, and mouse CD300E were mouse IgG2a-Fc fusions (R&D Systems). Binding was assessed by injecting each analyte over the entire antibody array using the single channel flow cell. CD300 analytes were diluted to 300 nM or 600 nM in running buffer and injected in series without regeneration. Two or three buffer blanks were run between each mouse or human ortholog, respectively. Data were processed and analyzed using NextGenKIT high-throughput kinetics analysis software (Carterra).
(§2) Results of anti-CD300LB antibody binding to human CD300 family members is provided below in Table 7.

Binder | SPR binding (control subtracted)
B1 | 0.76
B2 | 0.115
B3 | 0.575
B4 | 0.4

Biological target: T2, human CD300A-Fc
Experiment: as above
Experimental: as §1, §2

Binder | SPR binding (control subtracted)
B1 | 0.735
B2 | 0.24
B3 | 0.175
B4 | 0.095

Biological target: T3, human CD300E-Fc
Experiment: as above
Experimental: as §1, §2

Binder | SPR binding (control subtracted)
B1 | 0.62
B2 | 0.195
B3 | -0.105
B4 | 0.18

biological target: T4, human CD300LB on primary human monocytes; experiment: flow cytometry, primary human monocytes donor 1283, 10 ug/mL antibody, isotype control subtracted
Experimental: Human monocytes from various donors were isolated from whole blood using RosetteSep Human Monocyte Enrichment Cocktail (Stemcell technologies) and Ficoll centrifugation per manufacturer protocols. After lysing red blood cells with ACK lysing buffer, monocytes were resuspended in complete media (RPMI, 10% FBS, Pen/Strep, L-glutamine, HEPES, non-essential amino acid, Sodium pyruvate). To obtain macrophages from these isolated monocytes, 100 ng/ml human M-CSF and 8% v/v human serum were added to the cells for 5-7 days. Cells were counted on the day of the experiment and plated at 100,000 cells per well in a round-bottom 96 well plate. Cells were incubated with TruStain Fc block and 10 μg/mL antibody for 1 hour on ice before washing with 250 μL ice cold PBS twice. Cells were then incubated with the appropriate APC-conjugated secondary antibodies for 20 minutes in the dark on ice. Finally, cells were washed twice with ice cold FACS buffer and then resuspended in 100 μL FACS buffer containing 1% propidium iodide. Samples were immediately analyzed using a BD FACSCanto flow cytometer. The gMFI was calculated using FlowJo software minus the gMFI of the appropriate isotype control.

Binder | gMFI
B5 | 47 gMFI
B2 | 935 gMFI
B6 | 2470 gMFI
